Here are results for nine molecules from publication PMC4948773, “Identification of Preferred DNA-Binding Sites for the Thermus thermophilus Transcriptional Regulator SbtR by the Combinatorial Approach REPSA” (PLoS ONE, 2016).

To fix the notation:
B1: SbtR, transcriptional regulator encoded by the Thermus thermophilus HB8 TTHA0167 gene (natural protein, UniProt Q5SLX6 1-189, looked up)
chain: MAAMITPPGAGVKDKKRAILEATLAVLRERGLSGLKMEEVARRAEVGKGTIYLYFRDKRDLLKALVEERTWAFYREVEEVVRRKAPFFVRLEEVLRRRLAWVQEWRGLWAAVAREAMDDPTPWLKGLHEHYLRLLEELLRSGQSEGAVRTGLSPRATAAVIAAMGCTPSLEVEAYLEHLMEVLRKGVEP
modifications: intermolecular disulfide bond (disulfide-linked dimeric species)
notes: SbtR, TetR/AcrR family transcriptional regulator, Thermus thermophilus HB8, TTHA0167 (sbtR) gene in pET-11a; 189 amino acid residues, 21,539 Da; called wild-type SbtR; It says the plasmid holds the TTHA0167 gene and reckons the stock concentration from the 189-residue protein; also called SbtR2; SbtR dimer; source: E. coli BL21(DE3) with pET-sbtR, IPTG-induced; soluble extract heated at 70°C for …
B2: SbtR mini probe 22-bp (dsDNA)
DNA 1: GCCCTGACTGGCCAGTCACCCG
DNA 2: CGGGTGACTGGCCAGTCAGGGC
B3: m1 (dsDNA)
DNA 1: CTAGGAATTCGTGCAGAGGTGAATAGACTGGCCAGTCATTACCATCCCTCCAGAAGCTTGGAC
DNA 2: GTCCAAGCTTCTGGAGGGATGGTAATGACTGGCCAGTCTATTCACCTCTGCACGAATTCCTAG
B4: m6 (dsDNA)
DNA 1: B3 DNA 1 with A25T, G30C
DNA 2: B3 DNA 2 with C34G, T39A
B5: m5 (dsDNA)
DNA 1: B3 DNA 1 with A25T, T29A
DNA 2: B3 DNA 2 with A35T, T39A
B6: m3 (dsDNA)
DNA 1: B3 DNA 1 with A25T, A27T
DNA 2: B3 DNA 2 with T37A, T39A
B7: m4 (dsDNA)
DNA 1: B3 DNA 1 with A25T, C28G
DNA 2: B3 DNA 2 with G36C, T39A
B8: m2 (dsDNA)
DNA 1: B3 DNA 1 with A25T, G26C
DNA 2: B3 DNA 2 with C38G, T39A
B9: m7 (dsDNA)
DNA 1: B3 DNA 1 with A25T, G31C
DNA 2: B3 DNA 2 with C33G, T39A

Broadly, the stoichiometry N is the number of molecules, sites or subunits per partner or assembly.

Where a chain is given by its changes, count along the chain named.

One data set concerns the molecule itself. The data set is described as follows: SDS-PAGE with and without reductant; Coomassie-stained 4-20% SDS-PAGE gradient gel; purified SbtR loaded under standard reducing conditions or under oxidizing conditions (Laemmli loading buffer lacking reductant).
Conditions: not given
As to B1, the “stoichiometry N” value was 2.

The target in the next data set is T1, SbtR (Thermus thermophilus HB8, UniProt Q5SLX6 1-189).
T1 sequence: B1 chain
The data set can be described thus: EMSA; S1 complex, apparent; EMSA/REPA: 50 mM K acetate, 20 mM Tris acetate, 10 mM Mg acetate, BSA (CutSmart), pH 7.9, binding 55 C 20 min (REPA cleavage 37 C); BLI: 20 mM Tris-Cl pH 7.7, 100 mM NaCl, 1 mM EDTA, 0.05% Tween 20, 30 C (hydration step; binding temperature not separately stated); concentrations as SbtR dimer. Particulars: protein: recombinant; tags: none stated (pET-11a, wild-type); chain copies: 2; label: 5' IRDye700 on strand 1; blunt. For orientation: In EMSA bound probe runs differently from free probe, usually more slowly.
Consider B2, for which the Kd stood at 5 nM.

Another data set has as its target T1, SbtR. The data set can be described thus: BLI; EMSA/REPA: 50 mM K acetate, 20 mM Tris acetate, 10 mM Mg acetate, BSA (CutSmart), pH 7.9, binding 55 C 20 min (REPA cleavage 37 C); BLI: 20 mM Tris-Cl pH 7.7, 100 mM NaCl, 1 mM EDTA, 0.05% Tween 20, 30 C (hydration step; binding temperature not separately stated); concentrations as SbtR dimer. Particulars: protein: recombinant; tags: none stated (pET-11a, wild-type); chain copies: 2; label: 5' biotin-dT on strand 2 (extra 5' T in primer). For orientation: Biolayer interferometry detects binding as a change in optical thickness at a sensor tip.
B3: the Kd stood at 0.551 nM.

For B4, the Kd amounted to 0.159 nM.

B5: the Kd was determined as 15.5 nM.

Turning to B6, the Kd turned out to be 2.18 nM.

As for B7, the Kd was 1.24 nM.

Turning to B8, the Kd was determined as 7.11 nM.

With B9, the Kd amounted to 0.839 nM.
